According to paper PMC2614558:

Assays:
[1] = molecular target: cytoplasmic (C-terminal, soluble) domain of the putative zinc transporter CzrB from Thermus thermophilus, His-tag-free (Thermus thermophilus); assay: SEC
[2] = molecular target: cytoplasmic (C-terminal, soluble) domain of the putative zinc transporter CzrB from Thermus thermophilus, His-tag-free (Thermus thermophilus); assay: small-angle X-ray scattering
[3] = molecular target: cytoplasmic (C-terminal, soluble) domain of the putative zinc transporter CzrB from Thermus thermophilus, His-tag-free (Thermus thermophilus); assay: small-angle X-ray scattering; remark: listed apart in the source

Measured: stoichiometry N

cytoplasmic (C-terminal, soluble) domain of the putative zinc transporter CzrB from Thermus thermophilus, His-tag-free (domain or fragment)
2: all assays above
